In PMC1356529 one finds Ka data, which are given here for five substances.

The target in series [1] is NCp7 (HIV-1) (UniProt P12493). As to the kind of experiment: Trp fluorescence quenching titration.
Series [2] addresses NCp9 (HIV-1) (UniProt P12493). As to the kind of experiment: Trp fluorescence quenching titration.
The test system of series [3] is NCp15 (HIV-1). Kind of series: single-molecule DNA stretching.
For series [4], the target named is NCp7 (HIV-1) (UniProt P12493). As to the kind of experiment: single-molecule DNA stretching.
Series [5] concerns the target NCp9 (HIV-1) (UniProt P12493). As to the kind of experiment: single-molecule DNA stretching.
For series [6], the system named is NCp15 (HIV-1). As to the kind of experiment: Trp fluorescence quenching titration.
Series [7] concerns NCp15 (HIV-1). Kind of series: ethenoA fluorescence enhancement titration. The following applies: 1,N6-ethenoadenosine homopolymer (RNA).
Series [8] concerns the target NCp7 (HIV-1) (UniProt P12493). Kind of series: ethenoA fluorescence enhancement titration. The following applies: 1,N6-ethenoadenosine homopolymer (RNA).
The target in series [9] is NCp9 (HIV-1) (UniProt P12493). As to the kind of experiment: ethenoA fluorescence enhancement titration. The settings on record: 1,N6-ethenoadenosine homopolymer (RNA).

On to 3'LTR/U5 single strand, for which the Ka in [1] amounted to 4.3e+07 M⁻¹; in series [2], 6.2e+07 M⁻¹.
For the substance 5'LTR/U3 single strand, the Ka in [1] stood at 2.2e+08 M⁻¹; in [2], 3.9e+08 M⁻¹.
Turning to lambda-DNA, the Ka was 1.04e+08 M⁻¹ in series [3], 1.22e+08 M⁻¹ in series [4] and 1.4e+08 M⁻¹ in [5].
On to poly(dT), for which the figures for the Ka in series [6], in [1] and in series [2] were 1.4e+09 M⁻¹, 9.3e+07 M⁻¹ and 1.1e+08 M⁻¹, respectively.
As to poly(etheno-A), the results for the Ka in [7], in series [8] and in series [9] were 1.7e+09 M⁻¹, 1.4e+09 M⁻¹ and 3.8e+09 M⁻¹, respectively.
